Results: IntAct's records for PubMed 29039417

B1: BBSome complex member BBS4 (Homo sapiens), Q96RK4 (parent)
chain: MAEERVATRTQFPVSTESQKPRQKKAPEFPILEKQNWLIHLHYIRKDYEACKAVIKEQLQETQGLCEYAIYVQALIFRLEGNIQESLELFQTCAVLSPQSADNLKQVARSLFLLGKHKAAIEVYNEAAKLNQKDWEISHNLGVCYIYLKQFNKAQDQLHNALNLNRHDLTYIMLGKIHLLEGDLDKAIEVYKKAVEFSPENTELLTTLGLLYLQLGIYQKAFEHLGNALTYDPTNYKAILAAGSMMQTHGDFDVALTKYRVVACAVPESPPLWNNIGMCFFGKKKYVAAISCLKRANYLAPFDWKILYNLGLVHLTMQQYASAFHFLSAAINFQPKMGELYMLLAVALTNLEDIENAKRAYAEAVHLDKCNPLVNLNYAVLLYNQGEKKNALAQYQEMEKKVSLLKDNSSLEFDSEMVEMAQKLGAALQVGEALVWTKPVKDPKSKHQTTSTSKPASFQQPLGSNQALGQAMSSAAAYRTLPSGAGGTSQFTKPPSLPLEPEPAVESSPTETSEQIREK
partner: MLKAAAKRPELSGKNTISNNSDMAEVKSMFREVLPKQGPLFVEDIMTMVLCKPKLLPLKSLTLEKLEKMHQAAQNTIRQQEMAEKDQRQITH

Variants of: B1
Conditions: with bbip1_human BBIP1, A8MTZ0

effect of a mutation on the interaction	Variant
with no effect	MAEERVATRTQFPVSTESQKPRQKKAPEFPILEKQNWLIHLHYIRKDYEACKAVIKEQLQETQGLCEYAIYVQALIFRLEGNIQESLELFQTCAVLSPQSADNLKQVARSLFLLGKHKAAIEVYNEAAKLNQKDWEISHNLGVCYIYLKQFNKAQDQLHNALNLNRHDLTYIMLGKIHLLEGDLDKAIEVYKKAVEFSPENTELLTTLGLLYLQLGIYQKAFEHLGNALTYDPTNYKAILAAGSMMQTHGDFDVALTKYRVVACAVPESPPLWNNIGMCFFGKKKYVAAISCLKRANYLAPFDWAILYNLGLVHLTMQQYASAFHFLSAAINFQPKMGELYMLLAVALTNLEDIENAKRAYAEAVHLDKCNPLVNLNYAVLLYNQGEKKNALAQYQEMEKKVSLLKDNSSLEFDSEMVEMAQKLGAALQVGEALVWTKPVKDPKSKHQTTSTSKPASFQQPLGSNQALGQAMSSAAAYRTLPSGAGGTSQFTKPPSLPLEPEPAVESSPTETSEQIREK [K305A]
with no effect	MAEERVATRTQFPVSTESQKPRQKKAPEFPILEKQNWLIHLHYIRKDYEACKAVIKEQLQETQGLCEYAIYVQALIFRLEGNIQESLELFQTCAVLSPQSADNLKQVARSLFLLGKHKAAIEVYNEAAKLNQKDWEISHNLGVCYIYLKQFNKAQDQLHNALNLNRHDLTYIMLGKIHLLEGDLDKAIEVYKKAVEFSPENTELLTTLGLLYLQLGIYQKAFEHLGNALTYDPTNYKAILAAGSMMQTHGDFDVALTKYRVVACAVPESPPLWNNIGMCFFGKKKYVAAISCLKRANYLAPFDEKILYNLGLVHLTMQQYASAFHFLSAAINFQPKMGELYMLLAVALTNLEDIENAKRAYAEAVHLDKCNPLVNLNYAVLLYNQGEKKNALAQYQEMEKKVSLLKDNSSLEFDSEMVEMAQKLGAALQVGEALVWTKPVKDPKSKHQTTSTSKPASFQQPLGSNQALGQAMSSAAAYRTLPSGAGGTSQFTKPPSLPLEPEPAVESSPTETSEQIREK [W304E]
disrupting interaction strength	MAEERVATRTQFPVSTESQKPRQKKAPEFPILEKQNWLIHLHYIRKDYEACKAVIKEQLQETQGLCEYAIYVQALIFRLEGNIQESLELFQTCAVLSPQSADNLKQVARSLFLLGKHKAAIEVYNEAAKLNQKDWEISHNLGVCYIYLKQFNKAQDQLHNALNLNRHDLTYIMLGKIHLLEGDLDKAIEVYKKAVEFSPENTELLTTLGLLYLQLGIYQKAFEHLGNALTYDPTNYKAILAAGSMMQTHGDFDVALTKYRVVACAVPESPPLWNNIGMCFFGKKKYVAAISCLKRANYLAPFDRKILYNLGLVHLTMQQYASAFHFLSAAINFQPKMGELYMLLAVALTNLEDIENAKRAYAEAVHLDKCNPLVNLNYAVLLYNQGEKKNALAQYQEMEKKVSLLKDNSSLEFDSEMVEMAQKLGAALQVGEALVWTKPVKDPKSKHQTTSTSKPASFQQPLGSNQALGQAMSSAAAYRTLPSGAGGTSQFTKPPSLPLEPEPAVESSPTETSEQIREK [W304R]
with no effect	MAEERVATRTQFPVSTESQKPRQKKAPEFPILEKQNWLIHLHYIRKDYEACKAVIKEQLQETQGLCEYAIYVQALIFRLEGNIQESLELFQTCAVLSPQSADNLKQVARSLFLLGKHKAAIEVYNEAAKLNQKDWEISHNLGVCYIYLKQFNKAQDQLHNALNLNRHDLTYIMLGKIHLLEGDLDKAIEVYKKAVEFSPENTELLTTLGLLYLQLGIYQKAFEHLGNALTYDPTNYKAILAAGSMMQTHGDFDVALTKYRVVACAVPESPPLWNNIGMCFFGKKKYVAAISCLKRANYLAPFDKKILYNLGLVHLTMQQYASAFHFLSAAINFQPKMGELYMLLAVALTNLEDIENAKRAYAEAVHLDKCNPLVNLNYAVLLYNQGEKKNALAQYQEMEKKVSLLKDNSSLEFDSEMVEMAQKLGAALQVGEALVWTKPVKDPKSKHQTTSTSKPASFQQPLGSNQALGQAMSSAAAYRTLPSGAGGTSQFTKPPSLPLEPEPAVESSPTETSEQIREK [W304K]
with no effect	MAEERVATRTQFPVSTESQKPRQKKAPEFPILEKQNWLIHLHYIRKDYEACKAVIKEQLQETQGLCEYAIYVQALIFRLEGNIQESLELFQTCAVLSPQSADNLKQVARSLFLLGKHKAAIEVYNEAAKLNQKDWEISHNLGVCYIYLKQFNKAQDQLHNALNLNRHDLTYIMLGKIHLLEGDLDKAIEVYKKAVEFSPENTELLTTLGLLYLQLGIYQKAFEHLGNALTYDPTNYKAILAAGSMMQTHGDFDVALTKYRVVACAVPESPPLWNNIGMCFFGKKKYVAAISCLKRANYLAPFDAKILYNLGLVHLTMQQYASAFHFLSAAINFQPKMGELYMLLAVALTNLEDIENAKRAYAEAVHLDKCNPLVNLNYAVLLYNQGEKKNALAQYQEMEKKVSLLKDNSSLEFDSEMVEMAQKLGAALQVGEALVWTKPVKDPKSKHQTTSTSKPASFQQPLGSNQALGQAMSSAAAYRTLPSGAGGTSQFTKPPSLPLEPEPAVESSPTETSEQIREK [W304A]

The next lines start with the variant.

Variant	effect of a mutation on the interaction
MAEERVATRTQFPVSTESQKPRQKKAPEFPILEKQNWLIHLHYIRKDYEACKAVIKEQLQETQGLCEYAIYVQALIFRLEGNIQESLELFQTCAVLSPQSADNLKQVARSLFLLGKHKAAIEVYNEAAKLNQKDWEISHNLGVCYIYLKQFNKAQDQLHNALNLNRHDLTYIMLGKIHLLEGDLDKAIEVYKKAVEFSPENTELLTTLGLLYLQLGIYQKAFEHLGNALTYDPTNYKAILAAGSMMQTHGDFDVALTKYRVVACAVPESPPLWNNIGMCFFGKKKYVAAISCLKRANYLASFDWKILYNLGLVHLTMQQYASAFHFLSAAINFQPKMGELYMLLAVALTNLEDIENAKRAYAEAVHLDKCNPLVNLNYAVLLYNQGEKKNALAQYQEMEKKVSLLKDNSSLEFDSEMVEMAQKLGAALQVGEALVWTKPVKDPKSKHQTTSTSKPASFQQPLGSNQALGQAMSSAAAYRTLPSGAGGTSQFTKPPSLPLEPEPAVESSPTETSEQIREK [P301S]	disrupting interaction strength
MAEERVATRTQFPVSTESQKPRQKKAPEFPILEKQNWLIHLHYIRKDYEACKAVIKEQLQETQGLCEYAIYVQALIFRLEGNIQESLELFQTCAVLSPQSADNLKQVARSLFLLGKHKAAIEVYNEAAKLNQKDWEISHNLGVCYIYLKQFNKAQDQLHNALNLNRHDLTYIMLGKIHLLEGDLDKAIEVYKKAVEFSPENTELLTTLGLLYLQLGIYQKAFEHLGNALTYDPTNYKAILAAGSMMQTHGDFDVALTKYRVVACAVPESPPLWNNIGMCFFGKKKYVAAISCLKRANYLAPFKWKILYNLGLVHLTMQQYASAFHFLSAAINFQPKMGELYMLLAVALTNLEDIENAKRAYAEAVHLDKCNPLVNLNYAVLLYNQGEKKNALAQYQEMEKKVSLLKDNSSLEFDSEMVEMAQKLGAALQVGEALVWTKPVKDPKSKHQTTSTSKPASFQQPLGSNQALGQAMSSAAAYRTLPSGAGGTSQFTKPPSLPLEPEPAVESSPTETSEQIREK [D303K]	with no effect
MAEERVATRTQFPVSTESQKPRQKKAPEFPILEKQNWLIHLHYIRKDYEACKAVIKEQLQETQGLCEYAIYVQALIFRLEGNIQESLELFQTCAVLSPQSADNLKQVARSLFLLGKHKAAIEVYNEAAKLNQKDWEISHNLGVCYIYLKQFNKAQDQLHNALNLNRHDLTYIMLGKIHLLEGDLDKAIEVYKKAVEFSPENTELLTTLGLLYLQLGIYQKAFEHLGNALTYDPTNYKAILAAGSMMQTHGDFDVALTKYRVVACAVPESPPLWNNIGMCFFGKKKYVAAISCLKRANYLAPFAWKILYNLGLVHLTMQQYASAFHFLSAAINFQPKMGELYMLLAVALTNLEDIENAKRAYAEAVHLDKCNPLVNLNYAVLLYNQGEKKNALAQYQEMEKKVSLLKDNSSLEFDSEMVEMAQKLGAALQVGEALVWTKPVKDPKSKHQTTSTSKPASFQQPLGSNQALGQAMSSAAAYRTLPSGAGGTSQFTKPPSLPLEPEPAVESSPTETSEQIREK [D303A]	with no effect
MAEERVATRTQFPVSTESQKPRQKKAPEFPILEKQNWLIHLHYIRKDYEACKAVIKEQLQETQGLCEYAIYVQALIFRLEGNIQESLELFQTCAVLSPQSADNLKQVARSLFLLGKHKAAIEVYNEAAKLNQKDWEISHNLGVCYIYLKQFNKAQDQLHNALNLNRHDLTYIMLGKIHLLEGDLDKAIEVYKKAVEFSPENTELLTTLGLLYLQLGIYQKAFEHLGNALTYDPTNYKAILAAGSMMQTHGDFDVALTKYRVVACAVPESPPLWNNIGMCFFGKKKYVAAISCLKRANYLAPFEWKILYNLGLVHLTMQQYASAFHFLSAAINFQPKMGELYMLLAVALTNLEDIENAKRAYAEAVHLDKCNPLVNLNYAVLLYNQGEKKNALAQYQEMEKKVSLLKDNSSLEFDSEMVEMAQKLGAALQVGEALVWTKPVKDPKSKHQTTSTSKPASFQQPLGSNQALGQAMSSAAAYRTLPSGAGGTSQFTKPPSLPLEPEPAVESSPTETSEQIREK [D303E]	with no effect
MAEERVATRTQFPVSTESQKPRQKKAPEFPILEKQNWLIHLHYIRKDYEACKAVIKEQLQETQGLCEYAIYVQALIFRLEGNIQESLELFQTCAVLSPQSADNLKQVARSLFLLGKHKAAIEVYNEAAKLNQKDWEISHNLGVCYIYLKQFNKAQDQLHNALNLNRHDLTYIMLGKIHLLEGDLDKAIEVYKKAVEFSPENTELLTTLGLLYLQLGIYQKAFEHLGNALTYDPTNYKAILAAGSMMQTHGDFDVALTKYRVVACAVPESPPLWNNIGMCFFGKKKYVAAISCLKRANYLAPEDWKILYNLGLVHLTMQQYASAFHFLSAAINFQPKMGELYMLLAVALTNLEDIENAKRAYAEAVHLDKCNPLVNLNYAVLLYNQGEKKNALAQYQEMEKKVSLLKDNSSLEFDSEMVEMAQKLGAALQVGEALVWTKPVKDPKSKHQTTSTSKPASFQQPLGSNQALGQAMSSAAAYRTLPSGAGGTSQFTKPPSLPLEPEPAVESSPTETSEQIREK [F302E]	with no effect
MAEERVATRTQFPVSTESQKPRQKKAPEFPILEKQNWLIHLHYIRKDYEACKAVIKEQLQETQGLCEYAIYVQALIFRLEGNIQESLELFQTCAVLSPQSADNLKQVARSLFLLGKHKAAIEVYNEAAKLNQKDWEISHNLGVCYIYLKQFNKAQDQLHNALNLNRHDLTYIMLGKIHLLEGDLDKAIEVYKKAVEFSPENTELLTTLGLLYLQLGIYQKAFEHLGNALTYDPTNYKAILAAGSMMQTHGDFDVALTKYRVVACAVPESPPLWNNIGMCFFGKKKYVAAISCLKRANYLAPADWKILYNLGLVHLTMQQYASAFHFLSAAINFQPKMGELYMLLAVALTNLEDIENAKRAYAEAVHLDKCNPLVNLNYAVLLYNQGEKKNALAQYQEMEKKVSLLKDNSSLEFDSEMVEMAQKLGAALQVGEALVWTKPVKDPKSKHQTTSTSKPASFQQPLGSNQALGQAMSSAAAYRTLPSGAGGTSQFTKPPSLPLEPEPAVESSPTETSEQIREK [F302A]	with no effect
MAEERVATRTQFPVSTESQKPRQKKAPEFPILEKQNWLIHLHYIRKDYEACKAVIKEQLQETQGLCEYAIYVQALIFRLEGNIQESLELFQTCAVLSPQSADNLKQVARSLFLLGKHKAAIEVYNEAAKLNQKDWEISHNLGVCYIYLKQFNKAQDQLHNALNLNRHDLTYIMLGKIHLLEGDLDKAIEVYKKAVEFSPENTELLTTLGLLYLQLGIYQKAFEHLGNALTYDPTNYKAILAAGSMMQTHGDFDVALTKYRVVACAVPESPPLWNNIGMCFFGKKKYVAAISCLKRANYLAPKDWKILYNLGLVHLTMQQYASAFHFLSAAINFQPKMGELYMLLAVALTNLEDIENAKRAYAEAVHLDKCNPLVNLNYAVLLYNQGEKKNALAQYQEMEKKVSLLKDNSSLEFDSEMVEMAQKLGAALQVGEALVWTKPVKDPKSKHQTTSTSKPASFQQPLGSNQALGQAMSSAAAYRTLPSGAGGTSQFTKPPSLPLEPEPAVESSPTETSEQIREK [F302K]	with no effect
